From publication PMC5906529, “Conserved Bacterial-Binding Peptides of the Scavenger-Like Human Lymphocyte Receptor CD6 Protect From Mouse Experimental Sepsis” (Frontiers in Immunology, 2018)
Read-outs that look alike come from different tables or passages of the source.

Key:
[1] = Solid phase binding assay (ELISA); design: species or system E. coli O111:B4; settings: biotin-labeled peptides/proteins 5–20 µg/mL, overnight 4°C, HRP-streptavidin/TMB, OD 405–620 nm
Procedure: (§1) 96-well microtiter plates (Nunc, Roskilde, Denmark) were coated overnight at 4°C with 5 µg/mL of purified LPS (from E. coli O111:B4, Sigma L2630) or LTA (from S. aureus, Sigma L2515) in PBS and then incubated for 2 h at room temperature in blocking solution (20 mM Tris-HCl pH 7.4 plus 0.05% Tween 20 and 1% BSA). Biotin-labeled peptides/proteins (2.5–20 µg/mL) were added and incubated overnight at 4°C in blocking solution. After extensive washing, bound peptides/proteins were detected by the addition of horseradish peroxidase-labeled streptavidin (1:5,000 dilution; DAKO) for 1 h at room temperature. Color was developed by adding 3,3’,5,5’-tetramethylbenzidine liquid substrate (Sigma) and optical density read at 405–620 nm.
(§2) Figure 3 Analysis of the direct binding characteristics of CD6-derived peptides to purified pathogen-associated molecular patterns (PAMPs) from Gram-negative and Gram-positive origin. […] Following overnight incubation at 4°C bound peptides or proteins were developed by addition of horseradish peroxidase–streptavidin and 3,3’,5,5’-tetramethylbenzidine substrate and further readings at OD 405–620 nm. Results are expressed as mean ± SD of duplicates from one representative experiment of three performed. […] (C) Apparent Kd values and Hill coefficients for the binding of peptides and proteins in study to LPS and LTA determined by tryptophan fluorescence. […]

[2] = Solid phase binding assay (ELISA); design: species or system S. aureus; settings: biotin-labeled peptides/proteins 5–20 µg/mL, overnight 4°C, HRP-streptavidin/TMB, OD 405–620 nm
Procedure: as §1, §2

[3] = biological target: the molecule itself; assay: dynamic light scattering; peptide alone, 10 µg/mL in PBS, 25°C, Zetasizer Nano S; hydrodynamic diameter of the particles in solution
[4] = Endotoxin adsorption on coated Eupergit beads (LAL assay); settings: peptide/protein immobilized on Eupergit beads, 50 UI/mL LPS, 0–150 min, room temperature, vs HSA- and rshCD5-coated controls, preliminary
Procedure: CD6.PD1 and CD6.PD2 high affinity (and also CD6.PD3) to LPS and LTA makes these peptides suitable candidates for new supportive non-antibiotic strategies against sepsis. One such possibility would be the adsorption of circulating bacterial toxins by CD6-derived peptides covalently coupled to a solid phase. Preliminary results obtained by incubating an endotoxin solution (50 UI/mL LPS) with Eupergit® beads coated with different CD6-derived peptides (CD6.PD2 and CD6.PD3) or proteins (HSA, rshCD5, and rshCD6) for different periods of time support this approach (Figure S2 in Supplementary Material). […]
Supplementary Figure S1. Binding of rshCD6 protein, and CD6 (CD6.PD1, CD6.PD2, and CD6.PD3) and DMBT-1/SAG (pbs1)-derived peptides to LPS and LTA determined by tryptophan fluorescence. […] Peptide samples (with and without either Re-LPS or LTA) and blank samples (Re-LPS or LT A alone) were ex cited at 295 nm, and the emission spectra recorded from 300 to 400 nm. Results are expressed as the change in peptide fluorescence ( ΔF) at the wavelength of the emission maxima (353 nm for the peptides and 337 nm for rshCD6 protein) in the presence and absence of either Re- LPS or LT A. Results are means ± SD of 3 experiments. Peptide fluorescence changes at 353 nm were fitt ed to the Hill equation. […]

[5] = Intrinsic (tryptophan) fluorescence binding; design: species or system Salmonella minnesota serotype Re 595; settings: excitation 295 nm, peptide/protein 10 µg/mL in PBS pH 7.2, Hill equation fit, mean ± SD of three experiments, read-out: Re-LPS Kd ± σ (apparent Kd)
Procedure: (§3) To explore the ability of different peptides/proteins to bind LTA (Mr = 14,000, from S. aureus; Sigma) and rough LPS (Re-LPS, Mr = 2,500, from Salmonella minnesota serotype Re 595; Sigma), binding studies were carried out in an AB2 spectrofluorometer with a thermostated cuvette holder (±0.1°C), using 5 mm × 5 mm path length quartz cuvettes as described ([30]). Re-LPS concentration was assessed by quantification of 2-keto-3-deoxyoctulosonic acid ([31]). Peptide/protein samples (10 µg/mL) were titrated with different amounts of a stock solution of either LTA or Re-LPS in phosphate buffered saline (PBS) pH 7.2, and the Trp fluorescence emission spectra recorded with excitation at 295 nm. The fluorescence intensity readings were corrected for the dilution caused by […]. […] The apparent dissociation constant (Kd) of peptide/protein–ligand complexes were obtained by non-linear least-squares fitting to the Hill equation of the change in peptide fluorescence at 353 nm with the amount of added LTA or Re-LPS ([31]): ΔF/ΔFmax = [L]^n/([L]^n + Kd), where ΔF is the change in fluorescence intensity at 353 nm relative to the intensity of free peptide; ΔFmax is the change in fluorescence intensity at saturating LTA or Re-LPS concentrations; [L] is the molar concentration of free ligand; and n is the Hill coefficient. […]

[6] = Intrinsic (tryptophan) fluorescence binding; design: species or system S. aureus; settings: excitation 295 nm, peptide/protein 10 µg/mL in PBS pH 7.2, Hill equation fit, mean ± SD of three experiments, read-out: LTA Kd ± σ (apparent Kd)
Procedure: as §3

| Molecule | Binding to solid-phase bound LPS [1] | Binding to solid-phase bound LTA [2] | binding result [3] | Endotoxin levels after incubation with coated beads [4] | Kd [5] | Kd [6] |
| --- | --- | --- | --- | --- | --- | --- |
| rshCD5: recombinant soluble human CD5 protein, negative control (protein, UniProt P06127 25-372, looked up, extracellular domain, recombinant soluble human CD5 protein, negative control) extracellular domain: RLSWYDPDFQARLTRSNSKCQGQLEVYLKDGWHMVCSQSWGRSSKQWEDPSQASKVCQRLNCGVPLSLGPFLVTYTPQSSIICYGQLGSFSNCSHSRNDMCHSLGLTCLEPQKTTPPTTRPPPTTTPEPTAPPRLQLVAQSGGQHCAGVVEFYSGSLGGTISYEAQDKTQDLENFLCNNLQCGSFLKHLPETEAGRAQDPGEPREHQPLPIQWKIQNSSCTSLEHCFRKIKPQKSGRVLALLCSGFQPKVQSRLVGGSSICEGTVEVRQGAQWAALCDSSSARSSLRWEEVCREQQCGSVNSYRVLDAGDPTSRGLFCPHQKLSQCHELWERNSYCKKVFVTCQDPNP | no significant binding | no significant binding |  |  |  |  |
| GQVEVHFRGVW (source: synthetic peptide, manufactured by ProteoGenix (>80% purity)) [CD6.PD3 peptide] |  |  | binds |  |  |  |
| rshCD6: recombinant soluble human CD6 ectodomain (protein, UniProt P30203 18-402, looked up, extracellular domain, recombinant soluble human CD6 ectodomain) extracellular domain: HPSPAPPDQLNTSSAESELWEPGERLPVRLTNGSSSCSGTVEVRLEASWEPACGALWDSRAAEAVCRALGCGGAEAASQLAPPTPELPPPPAAGNTSVAANATLAGAPALLCSGAEWRLCEVVEHACRSDGRRARVTCAENRALRLVDGGGACAGRVEMLEHGEWGSVCDDTWDLEDAHVVCRQLGCGWAVQALPGLHFTPGRGPIHRDQVNCSGAEAYLWDCPGLPGQHYCGHKEDAGAVCSEHQSWRLTGGADRCEGQVEVHFRGVWNTVCDSEWYPSEAKVLCQSLGCGTAVERPKGLPHSLSGRMYYSCNGEELTLSNCSWRFNNSNLCSQSLAARVLCSASRSLHNLSTPEVPASVQTVTIESSVTVKIENKESRELMLL | dose-dependent binding | dose-dependent binding |  | reduced endotoxin levels | 630 ± 10 nM | 11 ± 4 nM |
